What all share (details): both partners purified
For assay [1], the target named is T1, Clb2-Cdk1 complex, Clb2-pp mutant (S. cerevisiae, UniProt P24869 187-491; P00546 1-298, R366A | R379A | K383A, phosphothreonine at 169 (by Cak1)).
T1 construct: Clb2 of S. cerevisiae, aa 187-491, phosphate-pocket mutant; Cdk1 (Cdc28) of S. cerevisiae, made as a GST-TEV-Cdk1 fusion; formed before Cks1 was added; also called clb2-pp Clb2-Cdk1; PP mutant Clb2-Cdk1; source: assembled from purified Clb2-pp (E. coli) and purified Cak1-phosphorylated Cdk1 (Sf9), desalted
The assay is described as follows: reconstitution of an active kinase complex by mixing; Clb2-Cdk1 combined with equimolar Cks1; no separate test of association.

For assay [2], the target named is T2, Clb2-Cdk1 complex, wild-type Clb2 (S. cerevisiae, UniProt P24869 187-491; P00546 1-298, phosphothreonine at 169 (by Cak1)).
T2 construct: Clb2 of S. cerevisiae, aa 187-491; Cdk1 (Cdc28) of S. cerevisiae, made as a GST-TEV-Cdk1 fusion; formed before Cks1 was added; also called wild-type Clb2-Cdk1; active Clb2-Cdk1; source: assembled from purified Clb2 (E. coli) and purified Cak1-phosphorylated Cdk1 (Sf9), desalted
The description is as above.

The target of assay [3] is T3, Clb2 (aa 187-491), wild-type (S. cerevisiae, UniProt P24869 187-491).
T3 construct: Clb2, major mitotic B-type cyclin of S. cerevisiae, aa 187-491; also called wild-type Clb2; source: E. coli BL21(DE3) Star, pET28, purified (Ni-NTA, S200 gel filtration)
T3 sequence (looked up): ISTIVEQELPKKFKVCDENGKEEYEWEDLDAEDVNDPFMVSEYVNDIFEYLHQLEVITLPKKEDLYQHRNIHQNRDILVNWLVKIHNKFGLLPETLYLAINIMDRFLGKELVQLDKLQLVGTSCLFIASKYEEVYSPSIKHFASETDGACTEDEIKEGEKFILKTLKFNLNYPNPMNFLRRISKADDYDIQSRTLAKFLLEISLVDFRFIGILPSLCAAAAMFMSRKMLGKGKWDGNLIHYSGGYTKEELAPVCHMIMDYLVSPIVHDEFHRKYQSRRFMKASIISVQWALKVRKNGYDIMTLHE
The assay can be described thus: reconstitution of an active kinase complex by mixing; 10.5 uM Cak1-phosphorylated Cdk1 and 10.5 uM Clb2, on ice 60 min, then desalted; the complex is known by its kinase activity only.

For assay [4], the target named is T4, Clb2-pp mutant (R366A, R379A, K383A), aa 187-491 (S. cerevisiae, UniProt P24869 187-491, R366A | R379A | K383A).
T4 construct: also called PP mutant Clb2; source: E. coli BL21(DE3) Star, pET28, purified (Ni-NTA, S200 gel filtration)
T4 sequence (looked up): T3 sequence (looked up) with R180A, R193A, K197A
The assay is described as above.

Numbering of substitutions follows the chain as printed. Numbers in names are those of the source.

T1 sequence (P00546 whole entry, stated change not applied, the tested form may be a part, one chain of several): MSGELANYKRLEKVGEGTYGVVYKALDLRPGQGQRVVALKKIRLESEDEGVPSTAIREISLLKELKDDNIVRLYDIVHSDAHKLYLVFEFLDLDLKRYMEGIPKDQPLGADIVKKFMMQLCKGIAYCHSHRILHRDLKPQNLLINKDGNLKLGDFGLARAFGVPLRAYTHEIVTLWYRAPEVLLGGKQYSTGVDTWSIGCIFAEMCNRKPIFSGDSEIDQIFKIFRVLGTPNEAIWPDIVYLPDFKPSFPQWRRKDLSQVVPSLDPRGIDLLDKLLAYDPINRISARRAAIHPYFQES
T2 sequence (P00546 whole entry, the tested form may be a part, one chain of several): as the sequence (P00546 whole entry, stated change not applied, the tested form may be a part, one chain of several) above

B1: Cks1, wild-type (natural protein, S. cerevisiae, UniProt P20486 1-150, looked up)
chain: MYHHYHAFQGRKLTDQERARVLEFQDSIHYSPRYSDDNYEYRHVMLPKAMLKVIPSDYFNSEVGTLRILTEDEWRGLGITQSLGWEHYECHAPEPHILLFKRPLNYEAELRAATAAAQQQQQQQQQQQQQQQQHQTQSISNDMQVPPQIS
notes: Cks1 of S. cerevisiae; also called wild-type Cks1; source: E. coli BL21(DE3) Star, purified (boiling, ammonium sulfate, S200 gel filtration)
For B1, the binding result in assay [1] and in assay [2] was “binds” in each case.

B2: Cks1 mutant (R33E, S82E, R102A) (natural protein, S. cerevisiae, UniProt P20486 1-150, looked up)
chain: B1 chain with R33E, S82E, R102A
notes: also called mutant Cks1; source: E. coli BL21(DE3) Star, purified (boiling, ammonium sulfate, S200 gel filtration)
For B2, the binding result in assay [1] and in assay [2] was “binds” each time.

B3: Cdk1 (Cdc28), T169-phosphorylated (enzyme)
chain: not shown
modifications: phosphothreonine at 169 (by Cak1)
notes: Cdk1 (Cdc28) of S. cerevisiae, made as a GST-TEV-Cdk1 fusion; no TEV cleavage is described; the pooled fractions are called GST-Cdk1; also called GST-Cdk1; phosphorylated Cdk1; source: Sf9, baculovirus, purified (Glutathione Sepharose, S200 gel filtration); phosphorylated with purified Cak1
Turning to B3, the binding result in assay [3] and in assay [4] was “binds” throughout.

Values taken from article PMC12062237, “Phosphate-binding pocket on cyclin B governs CDK substrate phosphorylation and mitotic timing” (Nature Communications, 2025).
